Measurements reported in patent US20200149062.

Sequence of ERK2 (P28482 2-360): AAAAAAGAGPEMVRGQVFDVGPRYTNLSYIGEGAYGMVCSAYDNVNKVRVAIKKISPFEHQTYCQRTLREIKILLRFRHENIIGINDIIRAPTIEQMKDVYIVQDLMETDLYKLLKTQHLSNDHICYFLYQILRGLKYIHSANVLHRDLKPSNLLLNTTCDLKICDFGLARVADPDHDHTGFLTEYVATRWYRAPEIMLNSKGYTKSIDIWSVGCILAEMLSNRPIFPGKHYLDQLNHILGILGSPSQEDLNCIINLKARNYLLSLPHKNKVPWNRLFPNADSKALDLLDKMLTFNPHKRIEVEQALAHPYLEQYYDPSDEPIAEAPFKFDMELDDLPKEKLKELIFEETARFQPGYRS

With recombinant PKG (purified active PKG) the “radioactive labeling of TSC2 ([gamma-33P]-ATP, autoradiography)” value (TSC2-FLAG SA (S1365A)) was “both radioactive or thiophosphate ester labeling of TSC2 was also seen when SA TSC2 was used”.

ERK2 was tested, and the “TSC2 radiolabeling with [gamma-33P]-ATP (in vitro kinase assay on FLAG-immune-precipitate)” value (WT-TSC2-FLAG) was “ERK2-TSC2 phosphorylation served as a positive control”.

With modified PKG (M438G) the “thiophosphate ester labeling of TSC2” value (TSC2-FLAG SA (S1365A)) was “both radioactive or thiophosphate ester labeling of TSC2 was also seen when SA TSC2 was used”.
